From patent US20120058051A1 (US Dept. of Health and Human Services, published 2012) come the findings set out here.

One experiment addresses T1, Fc-hROR1(d2d3) (human, UniProt Q01973 161-406, limits assumed).
T1 construct: domain: d2-Frizzled and d3-Kringle; Order from the name; not shown: human Fc region
The experiment in a line: ELISA, coated domain construct. In general terms: An ELISA detects its analyte on a solid surface through an enzyme-linked reagent.

The next experiment addresses T2, Fc-hROR1(d2) (human, UniProt Q01973 161-307, limits assumed).
T2 construct: domain: d2-Frizzled; Order from the name; not shown: human Fc region
The experiment in a line: ELISA, coated domain construct.

The target of a further experiment is T3, Fc-hROR(d3) (human, UniProt Q01973 308-406, limits assumed).
T3 construct: domain: d3-Kringle; Order from the name; not shown: human Fc region
In words: ELISA, coated domain construct.

In experiment [1] the target is T4, human ROR1-ECD (ROR1-derived extracellular domain fragment without Fc) (human, UniProt Q01973 30-406).
T4 construct: extracellular domain; also called hROR1ECD; ROR-ECD
In words: SPR (BIACORE X100), ROR1-ECD coupled to CM5 chip, bivalent IgG injected, 1:1 Langmuir model.

T2 sequence (Q01973 161-307 limits assumed): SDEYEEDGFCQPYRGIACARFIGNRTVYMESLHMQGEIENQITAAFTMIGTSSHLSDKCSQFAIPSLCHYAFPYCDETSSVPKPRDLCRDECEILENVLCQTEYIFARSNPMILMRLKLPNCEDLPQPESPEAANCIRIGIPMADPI
T3 sequence (Q01973 308-406 limits assumed): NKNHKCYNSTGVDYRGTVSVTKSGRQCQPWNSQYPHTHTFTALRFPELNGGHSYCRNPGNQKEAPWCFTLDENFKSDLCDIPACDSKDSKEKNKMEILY
T4 sequence (Q01973 30-406): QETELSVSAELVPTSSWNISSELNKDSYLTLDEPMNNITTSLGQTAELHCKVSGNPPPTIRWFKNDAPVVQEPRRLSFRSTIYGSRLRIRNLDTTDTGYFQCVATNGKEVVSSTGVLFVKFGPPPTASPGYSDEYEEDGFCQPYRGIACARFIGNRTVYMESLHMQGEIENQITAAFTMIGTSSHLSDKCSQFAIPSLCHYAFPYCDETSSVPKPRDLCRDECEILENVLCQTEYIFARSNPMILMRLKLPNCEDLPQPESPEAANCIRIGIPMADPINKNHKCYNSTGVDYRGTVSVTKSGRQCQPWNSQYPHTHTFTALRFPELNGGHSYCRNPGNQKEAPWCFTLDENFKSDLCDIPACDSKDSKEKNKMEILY
T1 sequence (Q01973 161-406 limits assumed): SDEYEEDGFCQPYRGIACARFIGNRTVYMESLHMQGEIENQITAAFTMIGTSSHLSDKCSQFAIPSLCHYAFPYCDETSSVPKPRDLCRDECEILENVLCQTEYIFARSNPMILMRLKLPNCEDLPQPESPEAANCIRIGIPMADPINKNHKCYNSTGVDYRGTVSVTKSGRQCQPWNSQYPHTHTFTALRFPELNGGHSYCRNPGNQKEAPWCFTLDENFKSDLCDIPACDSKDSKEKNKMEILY

B1: mouse monoclonal antibody (mAb) 2A2 (antibody, mouse IgG1, V domains shown)
VH: QVQLQQSGAELVRPGASVTLSCKASGYTFSDYEMHWVIQTPVHGLEWIGAIDPETGGTAYNQKFKGKAILTADKSSSTAYMELRSLTSEDSAVYYCTGYYDYDSFTYWGQGTLVTVSA
VL: DIVMTQSQKIMSTTVGDRVSITCKASQNVDAAVAWYQQKPGQSPKLLIYSASNRYTGVPDRFTGSGSGTDFTLTISNMQSEDLADYFCQQYDIYPYTFGGGTKLEIK
notes: also called mouse mAb 2A2
For the molecule B1, the binding result with Fc-hROR1(d2d3), in the experiment with Fc-hROR1(d2) and with Fc-hROR(d3) was “no binding” throughout. Further, the Kd in experiment [1] was determined as 0.1 nM.
